The results in this text go back to patent publication US20220265769A1 (GEISINGER HEALTH, published 2022).

Assay [1] addresses T1, TBX3 (human, UniProt O15119 1-743, limits assumed).
T1 sequence (looked up): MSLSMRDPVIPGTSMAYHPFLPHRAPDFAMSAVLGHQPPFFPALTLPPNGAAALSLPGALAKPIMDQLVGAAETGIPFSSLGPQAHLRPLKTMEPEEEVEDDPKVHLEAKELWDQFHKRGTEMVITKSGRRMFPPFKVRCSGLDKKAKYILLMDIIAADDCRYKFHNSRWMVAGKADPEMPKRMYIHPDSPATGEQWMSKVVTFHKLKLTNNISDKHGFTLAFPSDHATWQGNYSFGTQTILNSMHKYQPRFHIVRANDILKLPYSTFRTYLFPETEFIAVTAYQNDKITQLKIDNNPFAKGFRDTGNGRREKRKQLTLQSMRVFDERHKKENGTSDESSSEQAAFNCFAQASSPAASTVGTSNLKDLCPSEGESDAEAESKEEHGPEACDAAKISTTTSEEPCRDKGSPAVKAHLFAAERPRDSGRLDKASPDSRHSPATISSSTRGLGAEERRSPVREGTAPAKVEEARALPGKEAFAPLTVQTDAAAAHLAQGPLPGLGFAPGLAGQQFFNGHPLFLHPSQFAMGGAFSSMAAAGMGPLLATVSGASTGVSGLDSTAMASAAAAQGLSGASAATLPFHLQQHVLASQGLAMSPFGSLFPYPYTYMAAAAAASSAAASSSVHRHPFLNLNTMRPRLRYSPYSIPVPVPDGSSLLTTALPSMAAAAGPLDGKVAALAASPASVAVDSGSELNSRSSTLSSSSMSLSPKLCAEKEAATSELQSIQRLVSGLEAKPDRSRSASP
Description: IP and immunoblot, primary human fibroblasts. (Immunoblotting shows a protein as a band on a membrane.)

The target of assay [2] is EZH2 (human, UniProt Q15910 1-746, limits assumed). Kind of assay: IP and immunoblot, T47D cells and primary human fibroblasts.
For assay [3], the target named is T2, estrogen receptor (ERα) (human, UniProt P03372 1-595).
T2 construct: also called ESR1
T2 sequence (looked up): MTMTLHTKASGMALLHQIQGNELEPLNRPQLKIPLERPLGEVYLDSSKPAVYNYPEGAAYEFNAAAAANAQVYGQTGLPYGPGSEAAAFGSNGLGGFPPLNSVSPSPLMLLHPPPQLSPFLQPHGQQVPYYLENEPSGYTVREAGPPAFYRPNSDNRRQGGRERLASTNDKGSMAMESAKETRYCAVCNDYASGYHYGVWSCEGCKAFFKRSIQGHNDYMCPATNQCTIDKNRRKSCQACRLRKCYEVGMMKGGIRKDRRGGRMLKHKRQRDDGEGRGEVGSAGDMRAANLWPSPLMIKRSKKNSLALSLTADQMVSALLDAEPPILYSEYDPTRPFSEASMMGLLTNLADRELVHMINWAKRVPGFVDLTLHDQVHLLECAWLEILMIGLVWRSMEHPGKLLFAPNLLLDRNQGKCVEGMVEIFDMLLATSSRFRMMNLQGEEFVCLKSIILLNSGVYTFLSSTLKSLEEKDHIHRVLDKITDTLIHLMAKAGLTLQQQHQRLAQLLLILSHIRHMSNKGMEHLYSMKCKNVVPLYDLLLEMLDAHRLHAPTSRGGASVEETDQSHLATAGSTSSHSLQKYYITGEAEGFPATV
Kind of assay: IP and immunoblot, T47D, MDA-MB231 and PME cells (FIG. 14F).

The target in assay [4] is HCF-1 (human, UniProt P51610 2-2035, limits assumed). Described as above.
Sequence of HCF-1 (P51610 2-2035 limits assumed): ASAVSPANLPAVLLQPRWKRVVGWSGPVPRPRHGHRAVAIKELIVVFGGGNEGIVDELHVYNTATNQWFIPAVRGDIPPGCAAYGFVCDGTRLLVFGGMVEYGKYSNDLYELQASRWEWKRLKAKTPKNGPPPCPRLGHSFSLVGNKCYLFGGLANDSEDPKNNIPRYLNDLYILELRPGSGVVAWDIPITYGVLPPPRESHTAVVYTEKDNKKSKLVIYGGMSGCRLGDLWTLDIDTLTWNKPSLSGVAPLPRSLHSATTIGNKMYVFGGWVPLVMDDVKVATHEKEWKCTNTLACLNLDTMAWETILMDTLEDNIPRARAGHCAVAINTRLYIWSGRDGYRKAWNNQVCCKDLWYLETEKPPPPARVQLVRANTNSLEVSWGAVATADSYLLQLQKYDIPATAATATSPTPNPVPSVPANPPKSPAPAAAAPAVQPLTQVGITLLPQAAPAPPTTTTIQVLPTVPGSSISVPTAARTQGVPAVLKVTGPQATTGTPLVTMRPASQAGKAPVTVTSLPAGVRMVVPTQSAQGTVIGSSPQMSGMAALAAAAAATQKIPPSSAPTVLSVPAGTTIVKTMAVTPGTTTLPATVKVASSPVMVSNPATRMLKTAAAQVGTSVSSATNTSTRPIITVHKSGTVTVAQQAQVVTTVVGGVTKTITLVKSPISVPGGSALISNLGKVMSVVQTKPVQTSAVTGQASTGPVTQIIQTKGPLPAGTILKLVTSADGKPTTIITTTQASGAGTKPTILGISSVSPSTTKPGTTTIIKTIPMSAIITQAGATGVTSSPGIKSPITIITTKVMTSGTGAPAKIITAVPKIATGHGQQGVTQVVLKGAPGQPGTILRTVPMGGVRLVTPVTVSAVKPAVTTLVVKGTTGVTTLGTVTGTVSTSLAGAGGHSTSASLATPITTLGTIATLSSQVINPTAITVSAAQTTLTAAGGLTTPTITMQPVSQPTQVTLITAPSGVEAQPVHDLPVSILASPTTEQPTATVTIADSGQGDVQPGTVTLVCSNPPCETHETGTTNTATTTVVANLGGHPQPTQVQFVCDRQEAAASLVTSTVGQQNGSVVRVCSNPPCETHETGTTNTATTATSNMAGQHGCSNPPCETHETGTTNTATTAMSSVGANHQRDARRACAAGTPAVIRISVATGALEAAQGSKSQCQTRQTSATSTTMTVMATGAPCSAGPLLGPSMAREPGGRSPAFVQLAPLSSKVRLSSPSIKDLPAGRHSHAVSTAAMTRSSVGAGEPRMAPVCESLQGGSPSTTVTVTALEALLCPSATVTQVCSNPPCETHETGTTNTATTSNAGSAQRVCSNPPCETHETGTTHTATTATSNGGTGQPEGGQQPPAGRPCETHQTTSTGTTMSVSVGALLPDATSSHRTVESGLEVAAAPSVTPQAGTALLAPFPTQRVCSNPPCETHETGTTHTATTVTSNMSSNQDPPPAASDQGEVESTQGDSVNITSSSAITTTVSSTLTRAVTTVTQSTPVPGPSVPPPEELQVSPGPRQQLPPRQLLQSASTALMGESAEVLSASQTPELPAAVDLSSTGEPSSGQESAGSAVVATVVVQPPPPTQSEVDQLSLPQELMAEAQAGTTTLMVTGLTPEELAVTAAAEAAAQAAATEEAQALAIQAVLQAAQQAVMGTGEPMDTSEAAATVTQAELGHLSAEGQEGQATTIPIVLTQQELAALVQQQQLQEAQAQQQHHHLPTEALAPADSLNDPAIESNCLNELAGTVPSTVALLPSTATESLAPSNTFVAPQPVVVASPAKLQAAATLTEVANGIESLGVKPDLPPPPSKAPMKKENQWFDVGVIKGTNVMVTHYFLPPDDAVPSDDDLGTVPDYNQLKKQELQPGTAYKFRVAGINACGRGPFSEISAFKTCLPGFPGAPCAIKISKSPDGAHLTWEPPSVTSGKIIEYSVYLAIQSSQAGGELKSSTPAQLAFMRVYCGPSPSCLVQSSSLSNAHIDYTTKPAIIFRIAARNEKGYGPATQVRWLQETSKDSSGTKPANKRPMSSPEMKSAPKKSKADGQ

Sequence of EZH2 (Q15910 whole entry): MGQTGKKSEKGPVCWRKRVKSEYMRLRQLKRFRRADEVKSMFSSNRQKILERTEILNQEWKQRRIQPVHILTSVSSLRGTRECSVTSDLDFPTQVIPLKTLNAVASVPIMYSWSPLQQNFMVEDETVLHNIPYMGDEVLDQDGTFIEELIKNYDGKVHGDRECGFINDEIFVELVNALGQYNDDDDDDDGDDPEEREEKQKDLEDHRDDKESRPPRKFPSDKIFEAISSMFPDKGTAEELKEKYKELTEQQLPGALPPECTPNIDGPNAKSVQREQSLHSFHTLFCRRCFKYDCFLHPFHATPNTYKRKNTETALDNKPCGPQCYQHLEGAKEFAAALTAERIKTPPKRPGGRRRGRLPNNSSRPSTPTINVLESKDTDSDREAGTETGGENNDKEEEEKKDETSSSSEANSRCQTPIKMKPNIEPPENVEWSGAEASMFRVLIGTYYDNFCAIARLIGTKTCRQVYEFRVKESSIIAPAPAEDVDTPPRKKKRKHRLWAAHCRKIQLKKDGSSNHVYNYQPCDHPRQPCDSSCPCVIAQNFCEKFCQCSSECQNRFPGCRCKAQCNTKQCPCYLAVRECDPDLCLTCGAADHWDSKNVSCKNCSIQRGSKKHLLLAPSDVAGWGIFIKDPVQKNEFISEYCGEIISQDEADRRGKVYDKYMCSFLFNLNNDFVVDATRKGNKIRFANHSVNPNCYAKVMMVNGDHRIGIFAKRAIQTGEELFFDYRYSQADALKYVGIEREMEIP

B1: CAPERα (Coactivator of AP1 and Estrogen Receptor) (other, human, UniProt Q14498 2-530, looked up)
chain: ADDIDIEAMLEAPYKKDENKLSSANGHEERSKKRKKSKSRSRSHERKRSKSKERKRSRDRERKKSKSRERKRSRSKERRRSRSRSRDRRFRGRYRSPYSGPKFNSAIRGKIGLPHSIKLSRRRSRSKSPFRKDKSPVREPIDNLTPEERDARTVFCMQLAARIRPRDLEEFFSTVGKVRDVRMISDRNSRRSKGIAYVEFVDVSSVPLAIGLTGQRVLGVPIIVQASQAEKNRAAAMANNLQKGSAGPMRLYVGSLHFNITEDMLRGIFEPFGRIESIQLMMDSETGRSKGYGFITFSDSECAKKALEQLNGFELAGRPMKVGHVTERTDASSASSFLDSDELERTGIDLGTTGRLQLMARLAEGTGLQIPPAAQQALQMSGSLAFGAVAEFSFVIDLQTRLSQQTEASALAAAASVQPLATQCFQLSNMFNPQTEEEVGWDTEIKDDVIEECNKHGGVIHIYVDKNSAQGNVYVKCPSIAAAIAAVNALHGRWFAGKMITAAYVPLPTYHNLFPDSMTATQLLVPSRR
notes: Endogenous protein immunoprecipitated or blotted from Dignam lysates; also called RBM39
In the case of B1, the binding result in assay [1] was “binds”; in assay [2] it was “binds”; in assay [3], “no binding”; in assay [4], “no binding”.
